Source: publication PMC5467210 (2017)

T1: NatA complex (Naa15-Naa10ΔC-His6) (Chaetomium thermophilum)
T1 chain 1: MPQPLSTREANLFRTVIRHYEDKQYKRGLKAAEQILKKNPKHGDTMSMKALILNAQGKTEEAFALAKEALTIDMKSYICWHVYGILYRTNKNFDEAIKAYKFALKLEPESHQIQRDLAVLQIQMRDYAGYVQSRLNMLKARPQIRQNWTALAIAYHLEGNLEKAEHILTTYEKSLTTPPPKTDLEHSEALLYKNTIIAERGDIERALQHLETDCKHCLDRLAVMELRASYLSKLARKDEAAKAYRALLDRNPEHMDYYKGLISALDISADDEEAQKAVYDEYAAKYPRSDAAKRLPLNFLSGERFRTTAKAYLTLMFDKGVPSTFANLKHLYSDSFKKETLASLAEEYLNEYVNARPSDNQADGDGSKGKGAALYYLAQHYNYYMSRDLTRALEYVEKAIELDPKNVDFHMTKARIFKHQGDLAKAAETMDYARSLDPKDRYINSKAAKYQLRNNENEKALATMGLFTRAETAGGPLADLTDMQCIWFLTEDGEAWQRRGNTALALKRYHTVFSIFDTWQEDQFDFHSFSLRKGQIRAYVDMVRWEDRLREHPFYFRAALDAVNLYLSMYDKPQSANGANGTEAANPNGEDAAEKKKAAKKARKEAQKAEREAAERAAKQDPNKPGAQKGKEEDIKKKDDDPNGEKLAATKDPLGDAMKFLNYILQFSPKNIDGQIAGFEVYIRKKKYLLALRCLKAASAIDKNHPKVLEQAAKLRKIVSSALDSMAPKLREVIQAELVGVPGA
T1 chain 2: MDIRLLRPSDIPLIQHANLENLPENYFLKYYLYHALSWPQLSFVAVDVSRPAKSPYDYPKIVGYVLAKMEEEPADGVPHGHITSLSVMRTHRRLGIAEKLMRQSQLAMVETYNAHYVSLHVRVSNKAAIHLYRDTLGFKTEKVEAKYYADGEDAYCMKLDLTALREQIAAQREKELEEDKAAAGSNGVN


Tests used:
[1] = biological target: NatA complex (His6-Naa15-Naa10ΔC-His6) (Chaetomium thermophilum); assay: SEC-MALS; NatA-HypK complex (0.2 mg) on Superdex 200 10/300 in SEC buffer coupled to MALS
[2] = biological target: T1, NatA complex (Naa15-Naa10ΔC-His6); assay: ITC; HypK-StrepII variants (100-400 μM) in the syringe, preformed NatA (Naa15-Naa10ΔC-His6, 10-40 μM) in the cell; 25 °C; 20 mM HEPES pH 7.5, 150 mM NaCl, 10 mM MgCl2, 10 mM KCl; single-site model; triplicates
[3] = biological target: T1, NatA complex (Naa15-Naa10ΔC-His6); assay: ITC

Row | Kd [3] [nM] | Molecule | other results
1 |  | His6-HypK (full length) (natural protein) | stoichiometry N [1]: 1
2 |  | HypK-StrepII (full length) (natural protein) | Kd [2]: 38.3 nM
3 | 46.9 | HypK-THB-StrepII (domain or fragment) GAMGKVDPADVNLLVEELELSKAKATELLKAHDGDAIKAMKAYIQPAFGSGSGSWSHPQFEK | 
4 | 28.6 | HypKΔN50-StrepII (domain or fragment) MAPAREVDQEAVKNAMSALSGASTEKKEVKKVKVDPADVNLLVEELELSKAKATELLKAHDGDAIKAMKAYIQPAF | 
